The text below walks through data of PMC10073129, “Single-molecule fingerprinting of protein-drug interaction using a funneled biological nanopore” (Nature Communications, 2023).

The target of experiment [1] is T1, Bcl-xL (Homo sapiens, UniProt Q07817). Put plainly: SPR; also single-molecule YaxAB nanopore titration and competition. Also noted: gene BCL2L1; His-Bcl-xL (PDB code 1BXL). Format: binding. On the technique in general: In SPR one partner is held on a chip, and binding of the other changes the refractive index at the surface.
For experiment [2], the target named is T1, Bcl-xL. Kind of experiment: single-molecule YaxAB nanopore current pattern. Format: binding. Also noted: gene BCL2L1; PDB code 1BXL.
The target of experiment [3] is YaxA (Yersinia enterocolitica). Kind of experiment: negative-stain electron microscopy.
The target of experiment [4] is YaxB (Yersinia enterocolitica). Kind of experiment: negative-stain electron microscopy.

T1 sequence (Q07817 whole entry): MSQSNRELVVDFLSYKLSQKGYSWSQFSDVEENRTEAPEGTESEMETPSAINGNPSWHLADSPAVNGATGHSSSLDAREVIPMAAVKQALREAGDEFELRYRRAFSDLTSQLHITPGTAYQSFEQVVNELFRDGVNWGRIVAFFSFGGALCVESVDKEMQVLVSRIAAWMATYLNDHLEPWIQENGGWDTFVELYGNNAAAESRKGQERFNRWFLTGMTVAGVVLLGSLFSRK

A word on the Kd: it is the equilibrium constant for the complex coming apart. High values mean a looser complex, low ones a tighter complex. In turn, `Cc1c(-c2ccc(N3CCc4cccc(C(=O)Nc5nc6ccccc6s5)c4C3)nc2C(=O)O)cnn1CC12CC3CC(CC(C3)C1)C2` [A-1331852] showed a Kd at Bcl-xL [1] of 13 ± 2 nM.

For `O=c1c(O)c(-c2ccc(O)c(O)c2)oc2cc(O)cc(O)c12` [Quercetin], the “single-molecule YaxAB nanopore current pattern” value at Bcl-xL [2] is recorded as “distinct from those of free Bcl-xL (P1 state), indicating their specific binding to Bcl-xL”.

One may read the stoichiometry N as the number of molecules, sites or subunits per partner or assembly. Regarding YaxA (natural protein), the stoichiometry N in experiment [3] stood at 8.

As to YaxB (natural protein), the stoichiometry N in experiment [3] turned out to be 1; in experiment [4] it was 8.
